Laboratory results reported in the MegaScale stability set (Tsuboyama et al. 2023).

B1: HEEH_KT_rd6_3632 (parent)
chain: DAEELIELVERALKEGREIILLGVRITSEEAGKWFIEWIRRFL

Variants of: B1
Assay: folding stability dG (cDNA display proteolysis); higher = more stable
Details: PBS, room temperature

Row | Variant | folding stability dG [kcal/mol]
1 | DAEELIELVERALKEGREIILLGVRITMEEAGKWFIEWIRRFL | 3.33
2 | DAEELIELVERALKEGREIILLGVRITIEEAGKWFIEWIRRFL | 3.46
3 | DAEELIELVERALKEGREIILAGVRITSEEAGKWFIEWIRRFL | 3.2
4 | DAEELIELVERALKEGREIILLVVRITSEEAGKWFIEWIRRFL | 3.88
5 | DAEELIELVERALKEGREIILLGVRITSEEAGKWSIEWIRRFL | 2.86
6 | DMEELIELVERALKEGREIILLGVRITSEEAGKWFIEWIRRFL | 3.92
7 | DKEELIELVERALKEGREIILLGVRITSEEAGKWFIEWIRRFL | 3.5
8 | DGEELIELVERALKEGREIILLGVRITSEEAGKWFIEWIRRFL | 3.42
9 | DAEELIELVERALKEGREIILLGVRITSEEAGKWFIEWYRRFL | 3.43
10 | DAEELIELVERALKEGREIILLGVRITSEEAGKWFIEWMRRFL | 3.58
11 | DAEELIELVERALKEGREIYLLGVRITSEEAGKWFIEWIRRFL | 3.27
12 | DAEELIELYERALKEGREIILLGVRITSEEAGKWFIEWIRRFL | 2.87
13 | DAEELIEDVERALKEGREIILLGVRITSEEAGKWFIEWIRRFL | 2.92
14 | DAEELIEGVERALKEGREIILLGVRITSEEAGKWFIEWIRRFL | 3.03
15 | DAEELIELVERALKEGREIILLGVRITSERAGKWFIEWIRRFL | 3.84
16 | DAEELIELVERAKKEGREIILLGVRITSEEAGKWFIEWIRRFL | 3.07
17 | DAEELIELVERALKEGREIILLGVRIQSEEAGKWFIEWIRRFL | 3.44
18 | DAEELIELVERALKEGREIILLGVPITSEEAGKWFIEWIRRFL | 3.14
19 | DAEELIELVERALKLGREIILLGVRITSEEAGKWFIEWIRRFL | 3.58
20 | DAEELIELVERALKFGREIILLGVRITSEEAGKWFIEWIRRFL | 3.64

Row | Variant | folding stability dG [kcal/mol]
21 | DAEELIELVERALKGGREIILLGVRITSEEAGKWFIEWIRRFL | 3.31
22 | DAEELIELVERALKAGREIILLGVRITSEEAGKWFIEWIRRFL | 3.7
23 | DAEELIELVERALKEGREIILLGVRITSEEAGKWFIEWIRRFT | 3.24
24 | DAEELIELVERALKEGREIILLGVRITSEEAGKWFIEWIRRFH | 3.17
25 | DAEELIYLVERALKEGREIILLGVRITSEEAGKWFIEWIRRFL | 3.77
26 | DAEELIPLVERALKEGREIILLGVRITSEEAGKWFIEWIRRFL | 3.1
27 | DAEELFELVERALKEGREIILLGVRITSEEAGKWFIEWIRRFL | 3.48
28 | DAEELTELVERALKEGREIILLGVRITSEEAGKWFIEWIRRFL | 3.25
29 | DAEELIELVERALKENREIILLGVRITSEEAGKWFIEWIRRFL | 3.58
30 | DAEELIELVERALKERREIILLGVRITSEEAGKWFIEWIRRFL | 3.44
31 | DAEELIELVERALKEGREIILLGVRITSEEAGKSFIEWIRRFL | 3.43
32 | DAEELIELVERALKEGREIILLGVRITSEETGKWFIEWIRRFL | 3.86
33 | DAEELIELVERALKEGREIILLGVRITSEEEGKWFIEWIRRFL | 4.2
34 | DAEELIELVERALKEGREIILLGVRITSEEDGKWFIEWIRRFL | 3.88
35 | DAEELIELVERALKEGREIILLGVRITSEEYGKWFIEWIRRFL | 3.62
36 | DAEESIELVERALKEGREIILLGVRITSEEAGKWFIEWIRRFL | 2.85
37 | DAEEIIELVERALKEGREIILLGVRITSEEAGKWFIEWIRRFL | 3.44
38 | DAEELIELVERALKEGRTIILLGVRITSEEAGKWFIEWIRRFL | 3.94
39 | DAEELIELVERALKEGREIILLGVRITSEEAQKWFIEWIRRFL | 3.43
40 | DAEELIELVERALKEGREIILLGVRITSEEAKKWFIEWIRRFL | 3.68

Row | Variant | folding stability dG [kcal/mol]
41 | DAEELIELVERALKEGREIILLGVRFTSEEAGKWFIEWIRRFL | 3.44
42 | DAESLIELVERALKEGREIILLGVRITSEEAGKWFIEWIRRFL | 3.89
43 | DAEILIELVERALKEGREIILLGVRITSEEAGKWFIEWIRRFL | 4.06
44 | DAEELIELVERALKEGREIILLGVRITSIEAGKWFIEWIRRFL | 3.94
45 | DAEELIELVERALKEGREIILLGVRITSEEAGKWFIEWIRDFL | 3.05
46 | DAEELIELVERALKEGREIILLGVRITSEEAGKWFIEWIRAFL | 3.62
47 | DAEELIELVERALGEGREIILLGVRITSEEAGKWFIEWIRRFL | 3.5
48 | DAEELIELVERMLKEGREIILLGVRITSEEAGKWFIEWIRRFL | 3.56
49 | DAEELIELVERQLKEGREIILLGVRITSEEAGKWFIEWIRRFL | 3.17
50 | DAEELIELVPRALKEGREIILLGVRITSEEAGKWFIEWIRRFL | 2.64
51 | DAEELIELVERALKEGREIILLGVRITSEEAGKWFIEMIRRFL | 3.32
52 | DAEELIELVERALKEGREIILLGVRITSEEAGKWFIETIRRFL | 2.79
53 | DAEELIELVERALKEGREIILLGVRITSEEAGKWFDEWIRRFL | 3.04
54 | DAEELIELVERALKEGREIILLGVRITSEEAGKWFMEWIRRFL | 3.37
55 | DAEELIELVERALKEGREMILLGVRITSEEAGKWFIEWIRRFL | 3.23
56 | DAEELIELVERALKEGREIILLGVRITSEEAGKWFIEWIRRYL | 3.72
57 | DAEELIELVERALKEGREIILLGVRITSEEAGKWFIEWIRRVL | 3.58
58 | DAEELIELVERALKEGPEIILLGVRITSEEAGKWFIEWIRRFL | 3.36
59 | DAEELIELVERALKEGREIILLGIRITSEEAGKWFIEWIRRFL | 3.98
